Data on one substance can be found in US20260078157A1.

Experiment [1] deals with human KLB and FGFR1c overexpressed on HEK293 cells (human) (UniProt Q86Z14). Briefly: cell-based or functional assay.
A further experiment has as its target surface of live cells. Kind of experiment: association and dissociation on the surface of live cells; method not stated.

UniProt Q86Z14, sequence (Q86Z14 whole entry, chain 1 of 2): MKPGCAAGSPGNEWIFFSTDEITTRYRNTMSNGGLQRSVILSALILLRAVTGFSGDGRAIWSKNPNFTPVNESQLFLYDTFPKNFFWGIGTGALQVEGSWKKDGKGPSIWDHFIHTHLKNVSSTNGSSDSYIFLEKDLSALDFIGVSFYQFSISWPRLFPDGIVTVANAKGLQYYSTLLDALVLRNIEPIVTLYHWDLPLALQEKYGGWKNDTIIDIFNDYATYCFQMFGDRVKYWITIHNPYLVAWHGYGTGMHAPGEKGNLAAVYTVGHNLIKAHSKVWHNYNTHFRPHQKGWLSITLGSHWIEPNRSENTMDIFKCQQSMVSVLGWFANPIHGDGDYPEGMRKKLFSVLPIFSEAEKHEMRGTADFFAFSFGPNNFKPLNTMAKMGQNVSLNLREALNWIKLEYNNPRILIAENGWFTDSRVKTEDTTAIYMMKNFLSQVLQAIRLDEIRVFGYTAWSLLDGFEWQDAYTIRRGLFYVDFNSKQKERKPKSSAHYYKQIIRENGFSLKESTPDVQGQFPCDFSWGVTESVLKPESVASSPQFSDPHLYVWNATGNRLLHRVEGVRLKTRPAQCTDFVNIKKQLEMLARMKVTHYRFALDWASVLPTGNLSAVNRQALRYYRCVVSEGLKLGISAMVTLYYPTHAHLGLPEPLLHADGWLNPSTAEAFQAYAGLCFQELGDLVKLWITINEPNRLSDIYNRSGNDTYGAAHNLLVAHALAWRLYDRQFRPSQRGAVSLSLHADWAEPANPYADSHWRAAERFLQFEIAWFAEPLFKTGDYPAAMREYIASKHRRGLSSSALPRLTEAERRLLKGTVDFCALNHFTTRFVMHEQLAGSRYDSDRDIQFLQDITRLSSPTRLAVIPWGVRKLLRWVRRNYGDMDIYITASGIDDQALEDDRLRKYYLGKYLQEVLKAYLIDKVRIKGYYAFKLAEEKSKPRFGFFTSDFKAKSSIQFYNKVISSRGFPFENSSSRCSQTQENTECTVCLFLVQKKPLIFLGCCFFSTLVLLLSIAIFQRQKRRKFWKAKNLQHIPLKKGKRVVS
UniProt Q86Z14, sequence (P11362 22-822, chain 2 of 2, further chain): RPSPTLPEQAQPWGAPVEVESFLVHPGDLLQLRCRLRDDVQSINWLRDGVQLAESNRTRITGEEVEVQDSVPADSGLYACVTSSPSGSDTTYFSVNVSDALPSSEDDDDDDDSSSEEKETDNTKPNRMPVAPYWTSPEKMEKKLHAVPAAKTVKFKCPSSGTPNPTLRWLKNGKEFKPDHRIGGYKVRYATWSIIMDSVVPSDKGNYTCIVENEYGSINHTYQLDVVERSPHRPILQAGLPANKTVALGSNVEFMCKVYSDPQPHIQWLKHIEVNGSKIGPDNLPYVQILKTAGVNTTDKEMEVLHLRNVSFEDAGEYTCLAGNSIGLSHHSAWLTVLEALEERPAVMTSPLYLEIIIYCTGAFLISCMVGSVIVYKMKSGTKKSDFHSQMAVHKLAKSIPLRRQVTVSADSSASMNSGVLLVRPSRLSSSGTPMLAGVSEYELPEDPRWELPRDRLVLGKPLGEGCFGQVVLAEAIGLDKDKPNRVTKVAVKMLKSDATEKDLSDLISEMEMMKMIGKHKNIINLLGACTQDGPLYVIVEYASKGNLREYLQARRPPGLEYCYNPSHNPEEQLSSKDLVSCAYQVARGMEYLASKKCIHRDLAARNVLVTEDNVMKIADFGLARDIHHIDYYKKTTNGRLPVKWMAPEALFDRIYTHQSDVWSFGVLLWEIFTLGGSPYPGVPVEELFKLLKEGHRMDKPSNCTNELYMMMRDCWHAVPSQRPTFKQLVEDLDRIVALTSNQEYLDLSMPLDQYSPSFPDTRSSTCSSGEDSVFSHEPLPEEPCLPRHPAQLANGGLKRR

For the substance Efruxifermin (EFX) (Fc fusion), the cell-based potency assay, Elk1 luciferase reporter in HEK293 cells overexpressing human KLB and FGFR1c; potency relative to ¾ EFX in experiment [1] came out at 2 fold. In the experiment with surface of live cells, this substance showed a fold more stable interaction, compared to either free FGF21 or a single FGF21 domain linked to an Fc domain of more than 100 fold.
